Test results as given in publication PMC9758056.
Where a chain is given by its changes, count along the chain named. Numbers in names are those of the source.

B1: LRRK2^RCKW (catalytic half of LRRK2: ROC, COR, kinase and WD40 domains), wild type, Q5S007 R1384A; K1385A (protein)
chain: KKAVPYNRMKLMIVGNTGSGKTTLLQQLMKTKKSDLGMQSATVGIDVKDWPIQIRDKAARDLVLNVWDFAGREEFYSTHPHFMTQRALYLAVYDLSKGQAEVDAMKPWLFNIKARASSSPVILVGTHLDVSDEKQRKACMSKITKELLNKRGFPAIRDYHFVNATEESDALAKLRKTIINESLNFKIRDQLVVGQLIPDCYVELEKIILSERKNVPIEFPVIDRKRLLQLVRENQLQLDENELPHAVHFLNESGVLLHFQDPALQLSDLYFVEPKWLCKIMAQILTVKVEGCPKHPKGIISRRDVEKFLSKKRKFPKNYMSQYFKLLEKFQIALPIGEEYLLVPSSLSDHRPVIELPHCENSEIIIRLYEMPYFPMGFWSRLINRLLEISPYMLSGRERALRPNRMYWRQGIYLNWSPEAYCLVGSEVLDNHPESFLKITVPSCRKGCILLGQVVDHIDSLMEEWFPGLLEIDICGEGETLLKKWALYSFNDGEEHQKILLDDLMKKAEEGDLLVNPDQPRLTIPISQIAPDLILADLPRNIMLNNDELEFEQAPEFLLGDGSFGSVYRAAYEGEEVAVKIFNKHTSLRLLRQELVVLCHLHHPSLISLLAAGIRPRMLVMELASKGSLDRLLQQDKASLTRTLQHRIALHVADGLRYLHSAMIIYRDLKPHNVLLFTLYPNAAIIAKIADYGIAQYCCRMGIKTSEGTPGFRAPEVARGNVIYNQQADVYSFGLLLYDILTTGGRIVEGLKFPNEFDELEIQGKLPDPVKEYGCAPWPMVEKLIKQCLKENPQERPTSAQVFDILNSAELVCLTRRILLPKNVIVECMVATHHNSRNASIWLGCGHTDRGQLSFLDLNTEGYTSEEVADSRILCLALVHLPVEKESWIVSGTQSGTLLVINTEDGKKRHTLEKMTDSVTCLYCNSFSKQSKQKNFLLVGTADGKLAIFEDKTVKLKGAAPLKILNIGNVSTPLMCLSESTNSTERNVMWGGCGTKIFSFSNDFTIQKLIETRTSQLFSYAAFSDSNIITVVVDTALYIAKQNSPVVEVWDKKTEKLCGLIDCVHFLREVMVKENKESKHKMSYSGRVKTLCLQKNTALWIGTGGGHILLLDLSTRRLIRVIYNFCNSVRVMMTAQLGSLKNVMLVLGYNRKNTEGTQKQKEIQSCLTVWDINLPHEVQNLEKHIEVRKELAEKMRRTSVE
B2: LRRK2^RCKW (catalytic half of LRRK2: ROC, COR, kinase and WD40 domains), wild type, Q5S007 S2345D (protein)
chain: B1 chain with A58R, A59K, S1019D
B3: LRRK2^RCKW (catalytic half of LRRK2: ROC, COR, kinase and WD40 domains), wild type, Q5S007 R1731D; S2345D (protein)
chain: B1 chain with A58R, A59K, R405D, S1019D
B4: LRRK2^RCKW (catalytic half of LRRK2: ROC, COR, kinase and WD40 domains), wild type, Q5S007 K1358A; K1359A (protein)
chain: B1 chain with K32A, K33A, A58R, A59K

Target: Taxol-stabilized microtubules from porcine brain tubulin, P02550
Assay: microtubule pelleting assay
Settings: chain shown with the change;, read off a plot

Chain of Taxol-stabilized microtubules from porcine brain tubulin, P02550 (P02550 other isoform, or with tags, fused parts or gaps, chain 1 of 2): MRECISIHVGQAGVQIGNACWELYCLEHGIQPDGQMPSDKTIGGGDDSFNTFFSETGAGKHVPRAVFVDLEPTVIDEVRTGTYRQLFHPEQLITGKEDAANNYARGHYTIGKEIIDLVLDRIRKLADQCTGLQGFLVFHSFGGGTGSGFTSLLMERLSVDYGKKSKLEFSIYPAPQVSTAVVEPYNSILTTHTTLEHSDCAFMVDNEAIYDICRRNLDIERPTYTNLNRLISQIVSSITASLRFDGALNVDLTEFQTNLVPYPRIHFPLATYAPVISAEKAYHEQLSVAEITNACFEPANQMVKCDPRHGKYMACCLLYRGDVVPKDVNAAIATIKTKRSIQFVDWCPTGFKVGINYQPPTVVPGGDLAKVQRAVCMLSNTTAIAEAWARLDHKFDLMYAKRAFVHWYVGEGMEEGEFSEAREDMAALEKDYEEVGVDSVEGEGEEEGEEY
Chain of Taxol-stabilized microtubules from porcine brain tubulin, P02550 (chain, as listed by the source, chain 2 of 2): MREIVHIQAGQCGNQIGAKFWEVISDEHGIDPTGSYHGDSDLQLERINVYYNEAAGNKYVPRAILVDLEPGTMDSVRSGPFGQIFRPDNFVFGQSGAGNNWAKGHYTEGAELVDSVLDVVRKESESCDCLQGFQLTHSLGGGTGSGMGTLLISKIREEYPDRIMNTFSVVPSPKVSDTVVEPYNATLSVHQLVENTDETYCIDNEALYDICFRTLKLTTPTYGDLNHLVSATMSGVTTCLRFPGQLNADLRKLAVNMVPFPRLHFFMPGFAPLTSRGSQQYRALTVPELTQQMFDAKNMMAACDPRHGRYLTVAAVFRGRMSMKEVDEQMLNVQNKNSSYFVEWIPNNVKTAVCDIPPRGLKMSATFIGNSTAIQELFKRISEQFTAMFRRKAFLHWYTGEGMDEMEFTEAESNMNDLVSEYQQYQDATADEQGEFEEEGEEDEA

Binder	response (fraction microtubule bound) (parent: est. 0.78)	response (fraction microtubule bound) (parent: est. 0.70)
B1	0.35	
B2		0.53
B3		0.1
B4	0.48	
